Legend:
[1] = system: HSG cells (a human salivary gland cell line); test: Regulated volume decrease (RVD) after hypotonic solution in HSG cells; type: cell-based; conditions: 6 ng/ml of BMP6 for 4 days
Experimental: Regulated volume decrease was measured as described previously (Liu et al., J Biol Chem 281:15485-15495, 2006). Briefly SMGs from mice were removed at the end of the study and prepared as described (Liu et al., J Biol Chem 281:15485-15495, 2006). Cells were then loaded with the fluoroprobe calcein (Molecular Probes, Inc., Eugene, Oreg.) and excited at 490 nm. Emitted fluorescence was measured at 510 nm. In situ calibration of the dye was performed. Origin 7.5 (OriginLab, Northampton, Mass.) was used for data analysis and display. Significant difference between individual groups was tested by using analysis of variance.
Although no increase in a number of immunological factors was detected, it is not possible to rule out the possibility that BMP6 expression is a trigger for expression of another soluble factor and is not directly causing the loss of RVD in isolated salivary gland cells from the treated mice. To test for a direct effect of BMP6 on RVD, HSG cells (a human salivary gland cell line) were treated with 6 ng/ml of BMP6 for 4 days and then assayed for a loss in RVD activity (FIG. 8B). […] To date little is known about the role of BMPs in SS and the present work represents the first association.

[2] = system: salivary and lacrimal glands of mice; test: Histopathological scoring for lymphocytic infiltrates (focus score); type: in vivo, mouse; conditions: 20 weeks post cannulation, vs control mice, statistically significant
Experimental: Submandibular glands (SMG) were removed for histological analysis from mice at the time of sacrifice, and placed O/N in 10% formalin. After fixation, the tissues were dehydrated in an ethanol series and embedded in paraffin according standard techniques. Sections were cut at 5 μm and subsequently stained with hematoxylin and eosin (H&E). Histopathological scoring was performed using the focus score. A focus is an aggregate of 50 or more mononuclear cells per 4 mm^2. Foci were counted through the whole section, in a total of three sections (50 μm between sections) per SG using a 40× magnification. The results were calculated and expressed as foci per 4 mm^2. The focus scores were assessed blindly by two different examiners and the mean scores were determined.
A hallmark of pSS is lymphocytic infiltration in the […] glands, especially salivary and lacrimal glands. To determine the effect of elevated BMP6 on the local immune environment of the salivary gland, histopathological scoring for lymphocytic infiltrates was performed on both salivary and lacrimal glands 20 weeks post cannulation. […] Furthermore, no changes in circulating autoantibodies to anti-Ro/SSA or anti-La/SSB were detected in the animals expressing BMP6 in the salivary glands compared with control mice (FIGS. 5C and 5D).

MDCK1 cells = test: Trans epithelial resistance (TEER) of cell monolayers in transwells; type: cell-based; conditions: MDCK1 cells grown in 6 ng/ml BMP6 vs without BMP6
Experimental: (§1) Trans epithelial electrical resistance (TER) of all cell types was measured using a using a volt/ohm meter (Millicel; Millipore, Mass., USA) in an electrode chamber (EVOV; WPI, FL, USA). Cells were allowed to establish monolayers on 0.4-Am pore size polycarbonate filters in 6-mm Transwell chambers (Costar, Mass., USA).
(§2) Tight junction structures are important in the correct functioning of the salivary glands. […] To determine if BMP6 expression could alter epithelial integrity, monolayers of three well differentiated epithelia (SMEI, Caco-2, and MDCK1 cells) grown in the presence of 6 ng/ml BMP6 in transwells were tested for changes in trans epithelial resistance (TEER) compared with cells grown without BMP6 (FIG. 7A). […] BMP6 expression also changed the electrical potential of the glands as well (FIG. 7A).

SMEI cells = test: as above; type: cell-based; conditions: SMEI cells grown in 6 ng/ml BMP6 vs without BMP6
Experimental: as §1, §2

Caco-2 cells = test: as above; type: cell-based; conditions: Caco-2 cells grown in 6 ng/ml BMP6 vs without BMP6
Experimental: as §1, §2

SMG ducts of mice = test: Electrical potential across the duct of the SMG; type: in vivo, mouse; conditions: mice transduced with 10^11 particles of AAV5 expressing BMP6, vs GFP control mice
Text: To measure the electrical potential (EP) across the duct of the SMGs, a procedure was developed to measure the EP by cannulating the duct and inserting the electrode in the cannula. The high impedance electrode was attached to an electrometer (model FD223, World Precision Instrument, Sarasota, Fla.). The electrical potential of the duct was read by placing the ground electronic rode on the adjacent tissues to the opening of the ducts.
To measure electrophysiologic parameters associated with Sjögren's syndrome, a measurement circuit 20 (see FIG. 10) was established between a detection electrode 22 placed in a salivary gland duct and a reference electrode 24 placed in electrical contact with adjacent oral mucosa. In this particular example, the electrical potential was measured across the ducts of SMGs. A procedure was developed to measure TEER by cannulating the electrode of a transmeter (model FD223, World Precision Instrument, Sarasota, Fla.) in the ducts of SMGs of mice (FIG. 10). […]
The detecting electrode included a cannula 26 placed on a 1 mL syringe 28, which was a fixed supporter. […] The trans-epithelial potential was read by placing the ground electrode on the tissues adjacent to the opening of the ducts. Background potential was determined by reading the potential when the detecting electronic rode was placed in saline only.

B1: BMP6: A member of the TGF-β superfamily of growth factors; added to cultured cells at 6 ng/ml (protein, UniProt P22004 375-513, looked up)
Bone morphogenetic protein 6: SASSRRRQQSRNRSTQSQDVARVSSASDYNSSELKTACRKHELYVSFQDLGWQDWIIAPKGYAANYCDGECSFPLNAHMNATNHAIVQTLVHLMNPEYVPKPCCAPTKLNAISVLYFDDNSNVILKKYRNMVVRACGCH
RVD activity of HSG cells [1]: loss of volume decrease was detected
Increase in focus score in the salivary glands [2]: > 2 fold
Change in TEER (MDCK1 cells): statistically significant increase in TEER
Change in TEER (SMEI cells): statistically significant increase in TEER
Change in TEER (Caco-2 cells): statistically significant increase in TEER
Electrical potential in intact salivary glands (SMG ducts of mice): increase in electrical potential

From patent US10864285B2, “Methods for the diagnosis and treatment of Sjögren's syndrome” (The U.S.A., as represented by the Secretary, Department of …, priority 2012, dated 2020)
